Reference: the supplement of paper PMC9112550, “Optimization of the antimicrobial peptide Bac7 by deep mutational scanning” (BMC Biology, 2022)

Test system: Escherichia coli TOP10
Assay: shrunken log2 fold change of peptide-encoding DNA abundance (4.5 h post-induction vs induction); higher = less antimicrobial activity (less host growth inhibition)
Details: time post-induction: 4.5 h; library: site-saturation at positions 5, 18, 19, 20
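Also: peptides expressed intracellularly from a pBAD plasmid library in pooled LB shake-flask culture, induced with 0.3% L-arabinose, DNA abundance read by NGS, three biological replicates, DESeq2 with apeglm shrinkage.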

Sequence	shrunken log2 fold change
RRIRVRPPRLPRPRPRPNQAPRP	0.0159
RRIRSRPPRLPRPRPRPYGCPRP	-0.248
RRIRERPPRLPRPRPRPKANPRP	0.0174
RRIRMRPPRLPRPRPRPLTMPRP	0.24
RRIRLRPPRLPRPRPRPGKKPRP	0.0971
RRIRYRPPRLPRPRPRPFEEPRP	-0.0344
RRIRVRPPRLPRPRPRPHVKPRP	-0.0504
RRIRERPPRLPRPRPRPECSPRP	-0.0948
RRIRKRPPRLPRPRPRPKKGPRP	0.368
RRIRNRPPRLPRPRPRPGCKPRP	-0.00214
RRIRPRPPRLPRPRPRPHMWPRP	-0.175
RRIRGRPPRLPRPRPRPFDRPRP	0.0386
RRIRGRPPRLPRPRPRPMMQPRP	1
RRIRARPPRLPRPRPRPVREPRP	1.01
RRIRIRPPRLPRPRPRPTMEPRP	-0.523
RRIRSRPPRLPRPRPRPNGMPRP	-0.0245
RRIRGRPPRLPRPRPRPGCNPRP	0.773
RRIRGRPPRLPRPRPRPYMRPRP	0.0456
RRIRVRPPRLPRPRPRPEGAPRP	0.451
RRIRYRPPRLPRPRPRPYNWPRP	-0.593
RRIRGRPPRLPRPRPRPHQMPRP	0.532
RRIRIRPPRLPRPRPRPQPNPRP	-0.267
RRIRCRPPRLPRPRPRPTVEPRP	0.199
RRIRLRPPRLPRPRPRPSVPPRP	-0.185
RRIRIRPPRLPRPRPRPMAFPRP	-0.0587

Sequence	shrunken log2 fold change
RRIRFRPPRLPRPRPRPYSNPRP	-0.603
RRIRLRPPRLPRPRPRPHPCPRP	-0.0967
RRIRHRPPRLPRPRPRPHLSPRP	-0.43
RRIRRRPPRLPRPRPRPFMGPRP	-0.366
RRIRMRPPRLPRPRPRPKTQPRP	0.971
RRIRQRPPRLPRPRPRPKSIPRP	-0.695
RRIRERPPRLPRPRPRPRMCPRP	-0.0502
RRIRHRPPRLPRPRPRPWTGPRP	-0.104
RRIRDRPPRLPRPRPRPILFPRP	-0.185
RRIRHRPPRLPRPRPRPSYLPRP	-0.683
RRIRFRPPRLPRPRPRPLIPPRP	-0.651
RRIRDRPPRLPRPRPRPSDDPRP	0.126
RRIRKRPPRLPRPRPRPNMAPRP	0.00469
RRIRQRPPRLPRPRPRPTNPPRP	-0.175
RRIRARPPRLPRPRPRPFLQPRP	0.123
RRIRARPPRLPRPRPRPISKPRP	-0.401
RRIRLRPPRLPRPRPRPCTGPRP	-0.0081
RRIRMRPPRLPRPRPRPCQDPRP	0.227
RRIRVRPPRLPRPRPRPHNQPRP	-0.471
RRIRVRPPRLPRPRPRPPSAPRP	0.47
RRIRMRPPRLPRPRPRPMWRPRP	0.00628
RRIRNRPPRLPRPRPRPQHPPRP	-0.325
RRIRHRPPRLPRPRPRPTCFPRP	0.0654
RRIRQRPPRLPRPRPRPHREPRP	-0.152
RRIRDRPPRLPRPRPRPGHPPRP	0.813

Sequence	shrunken log2 fold change
RRIRHRPPRLPRPRPRPRRDPRP	-0.02
RRIRTRPPRLPRPRPRPGGVPRP	0.346
RRIRDRPPRLPRPRPRPELAPRP	1.68
RRIRRRPPRLPRPRPRPQSAPRP	0.123
RRIRIRPPRLPRPRPRPVLCPRP	-0.0142
RRIRFRPPRLPRPRPRPNDPPRP	-0.226
RRIRWRPPRLPRPRPRPPECPRP	-0.0729
RRIRKRPPRLPRPRPRPCDFPRP	-0.231
RRIRTRPPRLPRPRPRPPAAPRP	0.353
RRIRCRPPRLPRPRPRPKLLPRP	-0.172
RRIRQRPPRLPRPRPRPCGEPRP	-0.0396
RRIRMRPPRLPRPRPRPLYIPRP	-1.01
RRIRGRPPRLPRPRPRPGTCPRP	0.165
RRIRHRPPRLPRPRPRPFCMPRP	-1.09
RRIRHRPPRLPRPRPRPDAGPRP	-0.0143
RRIRIRPPRLPRPRPRPITVPRP	-0.426
RRIRNRPPRLPRPRPRPEQIPRP	-0.0196
RRIRERPPRLPRPRPRPRHQPRP	-0.164
RRIRYRPPRLPRPRPRPLDVPRP	0.0153
RRIRRRPPRLPRPRPRPLHYPRP	0.239
RRIRMRPPRLPRPRPRPMGHPRP	-0.032
RRIRFRPPRLPRPRPRPEWTPRP	0.155
RRIRVRPPRLPRPRPRPTRYPRP	-0.0106
RRIRNRPPRLPRPRPRPNVYPRP	-0.17
RRIRIRPPRLPRPRPRPLICPRP	-0.738

Sequence	shrunken log2 fold change
RRIRYRPPRLPRPRPRPMPQPRP	-0.318
RRIRNRPPRLPRPRPRPTNLPRP	-0.0193
RRIRWRPPRLPRPRPRPMSKPRP	-0.133
RRIRNRPPRLPRPRPRPRYWPRP	0.0625
RRIRVRPPRLPRPRPRPHPAPRP	0.296
RRIRWRPPRLPRPRPRPSCNPRP	-0.0978
RRIRRRPPRLPRPRPRPPCWPRP	0.325
RRIRKRPPRLPRPRPRPEHLPRP	0.132
RRIRMRPPRLPRPRPRPNWPPRP	0.096
RRIRERPPRLPRPRPRPFNEPRP	-0.226
RRIRIRPPRLPRPRPRPIRSPRP	-0.273
RRIRARPPRLPRPRPRPEDWPRP	1.63
RRIRLRPPRLPRPRPRPWKSPRP	0.0457
RRIRTRPPRLPRPRPRPIRPPRP	0.122
RRIRIRPPRLPRPRPRPHTKPRP	-1.68
RRIRRRPPRLPRPRPRPTMYPRP	0.0102
RRIRARPPRLPRPRPRPGHLPRP	0.337
RRIRWRPPRLPRPRPRPERGPRP	0.683
RRIRMRPPRLPRPRPRPIVYPRP	0.00317
RRIRIRPPRLPRPRPRPPAWPRP	0.146
RRIRARPPRLPRPRPRPKQAPRP	0.147
RRIRNRPPRLPRPRPRPQSPPRP	-0.0298
RRIRGRPPRLPRPRPRPCDYPRP	0.132
RRIRCRPPRLPRPRPRPHHNPRP	-0.901
RRIRRRPPRLPRPRPRPGPFPRP	0.162

Sequence	shrunken log2 fold change
RRIRHRPPRLPRPRPRPHLNPRP	-0.00458
RRIRQRPPRLPRPRPRPQNEPRP	0.121
RRIRLRPPRLPRPRPRPIYPPRP	-0.134
RRIRLRPPRLPRPRPRPHVFPRP	-0.0592
RRIRSRPPRLPRPRPRPEFWPRP	0.281
RRIRSRPPRLPRPRPRPHQQPRP	-0.0386
RRIRIRPPRLPRPRPRPEPFPRP	0.126
RRIRERPPRLPRPRPRPSLQPRP	0.175
RRIRCRPPRLPRPRPRPGMDPRP	-0.0572
RRIRIRPPRLPRPRPRPPGVPRP	0.408
RRIRSRPPRLPRPRPRPHPQPRP	0.0419
RRIRMRPPRLPRPRPRPLKTPRP	0.642
RRIRERPPRLPRPRPRPPIDPRP	0.0361
RRIRVRPPRLPRPRPRPYCSPRP	-0.0744
RRIRYRPPRLPRPRPRPCKAPRP	-0.073
RRIRQRPPRLPRPRPRPCWEPRP	-0.126
RRIRTRPPRLPRPRPRPYAGPRP	-0.14
RRIRVRPPRLPRPRPRPMCNPRP	-0.263
RRIRTRPPRLPRPRPRPKTLPRP	0.0791
RRIRARPPRLPRPRPRPSICPRP	0.154
RRIRGRPPRLPRPRPRPMWSPRP	0.89
RRIRSRPPRLPRPRPRPNCYPRP	-0.0528
RRIRWRPPRLPRPRPRPWGAPRP	0.297
RRIRVRPPRLPRPRPRPHHGPRP	-0.348
RRIRGRPPRLPRPRPRPHIEPRP	1.15
